From publication doi:10.1101/2025.09.05.674436 (bioRxiv, 2025)
Changes are numbered by the printed parent chain. Names and notes keep the numbering of the source.

What was measured:
native gel or EMSA = target: the molecule itself; test: native gel or EMSA
[1] = target: the molecule itself; test: SDS-PAGE of LDS-resistant high molecular weight species
[2] = target: the molecule itself; test: semi-denaturing detergent agarose gel electrophoresis
UBE2D3 WT = UBE2D3 WT (UniProt P61077 1-147); test: ITC
UBE2D3 WT, sequence (P61077 whole entry): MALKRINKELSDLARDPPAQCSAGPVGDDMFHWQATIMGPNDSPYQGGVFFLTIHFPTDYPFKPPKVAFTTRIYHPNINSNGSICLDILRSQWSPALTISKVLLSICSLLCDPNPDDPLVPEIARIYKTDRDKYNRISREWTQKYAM

B1: WT-ZNFX1 reconstituted in T-REx-293 ZNFX1 KO cells (enzyme)
chain: MEERRPHLDARPRNSHTNHRGPVDGELPPRARNQANNPPANALRGGASHPGRHPRANNHPAAYWQREERFRAMGRNPHQGRRNQEGHASDEARDQRHDQENDTRWRNGNQDCRNRRPPWSNDNFQQWRTPHQKPTEQPQQAKKLGYKFLESLLQKDPSEVVITLATSLGLKELLSHSSMKSNFLELICQVLRKACSSKMDRQSVLHVLGILKNSKFLKVCLPAYVVGMITEPIPDIRNQYPEHISNIISLLQDLVSVFPASSVQETSMLVSLLPTSLNALRASGVDIEEETEKNLEKVQTIIEHLQEKRREGTLRVDTYTLVQPEAEDHVESYRTMPIYPTYNEVHLDERPFLRPNIISGKYDSTAIYLDTHFRLLREDFVRPLREGILELLQSFEDQGLRKRKFDDIRIYFDTRIITPMCSSSGIVYKVQFDTKPLKFVRWQNSKRLLYGSLVCMSKDNFETFLFATVSNREQEDLCRGIVQLCFNEQSQQLLAEVQPSDSFLMVETTAYFEAYRHVLEGLQEVQEEDVPFQRNIVECNSHVKEPRYLLMGGRYDFTPLIENPSATGEFLRNVEGLRHPRINVLDPGQWPSKEALKLDDSQMEALQFALTRELAIIQGPPGTGKTYVGLKIVQALLTNESVWQISLQKFPILVVCYTNHALDQFLEGIYNCQKTSIVRVGGRSNSEILKQFTLRELRNKREFRRNLPMHLRRAYMSIMTQMKESEQELHEGAKTLECTMRGVLREQYLQKYISPQHWESLMNGPVQDSEWICFQHWKHSMMLEWLGLGVGSFTQSVSPAGPENTAQAEGDEEEEGEEESSLIEIAEEADLIQADRVIEEEEVVRPQRRKKEESGADQELAKMLLAMRLDHCGTGTAAGQEQATGEWQTQRNQKKKMKKRVKDELRKLNTMTAAEANEIEDVWQLDLSSRWQLYRLWLQLYQADTRRKILSYERQYRTSAERMAELRLQEDLHILKDAQVVGMTTTGAAKYRQILQKVEPRIVIVEEAAEVLEAHTIATLSKACQHLILIGDHQQLRPSANVYDLAKNFNLEVSLFERLVKVNIPFVRLNYQHRMCPEIARLLTPHIYQDLENHPSVLKYEKIKGVSSNLFFVEHNFPEQEIQEGKSHQNQHEAHFVVELCKYFLCQEYLPSQITILTTYTGQLFCLRKLMPAKTFAGVRVHVVDKYQGEENDIILLSLVRSNQEGKVGFLQISNRICVALSRAKKGMYCIGNMQMLAKVPLWSKIIHTLRENNQIGPMLRLCCQNHPETHTLVSKASDFQKVPEGGCSLPCEFRLGCGHVCTRACHPYDSSHKEFQCMKPCQKVICQEGHRCPLVCFQECQPCQVKVPKTIPRCGHEQMVPCSVPESDFCCQEPCSKSLRCGHRCSHPCGEDCVQLCSEMVTIKLKCGHSQPVKCGHVEGLLYGGLLVKCTTKCGTILDCGHPCPGSCHSCFEGRFHERCQQPCKRLLICSHKCQEPCIGECPPCQRTCQNRCVHSQCKKKCGELCSPCVEPCVWRCQHYQCTKLCSEPCNRPPCYVPCTKLLVCGHPCIGLCGEPCPKKCRICHMDEVTQIFFGFEDEPDARFVQLEDCSHIFEVQALDRYMNEQKDDEVAIRLKVCPICQVPIRKNLRYGTSIKQRLEEIEIIKEKIQGSAGEIATSQERLKALLERKSLLHQLLPEDFLMLKEKLAQKNLSVKDLGLVENYISFYDHLASLWDSLKKMHVLEEKRVRTRLEQVHEWLAKKRLSFTSQELSDLRSEIQRLTYLVNLLTRYKIAEKKVKDSIAVEVYSVQNILEKTCKFTQEDEQLVQEKMEALKATLPCSGLGISEEERVQIVSAIGYPRGHWFKCRNGHIYVIGDCGGAMERGTCPDCKEVIGGTNHTLERSNQLASEMDGAQHAAWSDTANNLMNFEEIQGMM
stoichiometry N (native gel or EMSA): 2

B2: ZNFX1FL F1210A/R1216A (FARA mutant) (enzyme)
chain: B1 chain with F1210A, R1216A
binding result [1]: binds

B3: full length ZNFX1 expressed in insect cells (ZNFX1FL) (enzyme)
chain: B1 chain
binding result [2]: binds

B4: ZNFX1 Z-RING (residues 1533-1631), wild type (domain or fragment)
chain: RPPCYVPCTKLLVCGHPCIGLCGEPCPKKCRICHMDEVTQIFFGFEDEPDARFVQLEDCSHIFEVQALDRYMNEQKDDEVAIRLKVCPICQVPIRKNLR
Kd (UBE2D3 WT): 41 µM
dH (UBE2D3 WT): 2.04 kcal/mol
